This is an account of results in US20190322724A1.

Sequence of active 62 kDa MMP-2 (P08253 110-660 limits assumed): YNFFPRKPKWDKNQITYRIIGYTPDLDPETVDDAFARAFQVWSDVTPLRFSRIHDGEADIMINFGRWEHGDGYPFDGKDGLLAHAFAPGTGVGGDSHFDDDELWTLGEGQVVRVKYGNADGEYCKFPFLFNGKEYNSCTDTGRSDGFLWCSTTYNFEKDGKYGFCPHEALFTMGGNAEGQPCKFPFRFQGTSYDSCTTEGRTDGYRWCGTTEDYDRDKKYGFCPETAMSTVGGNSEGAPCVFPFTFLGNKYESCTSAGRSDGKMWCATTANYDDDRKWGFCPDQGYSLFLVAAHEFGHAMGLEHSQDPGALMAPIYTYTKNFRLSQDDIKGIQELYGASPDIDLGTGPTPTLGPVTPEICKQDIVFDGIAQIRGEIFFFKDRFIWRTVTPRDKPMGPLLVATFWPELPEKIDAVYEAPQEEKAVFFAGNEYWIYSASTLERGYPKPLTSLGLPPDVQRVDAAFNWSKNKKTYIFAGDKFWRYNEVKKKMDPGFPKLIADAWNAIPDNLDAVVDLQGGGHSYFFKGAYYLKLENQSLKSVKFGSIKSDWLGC
Sequence of wild type human TIMP-2 with C-terminal His6 tag (WT TIMP-2-His6) (P16035 other isoform, or with tags, fused parts or gaps): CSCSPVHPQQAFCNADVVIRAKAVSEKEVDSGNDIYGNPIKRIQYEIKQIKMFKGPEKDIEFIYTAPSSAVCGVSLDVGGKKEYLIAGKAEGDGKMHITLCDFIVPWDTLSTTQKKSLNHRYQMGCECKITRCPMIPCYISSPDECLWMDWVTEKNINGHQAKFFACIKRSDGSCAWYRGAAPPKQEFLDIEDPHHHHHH

The assay addresses active 62 kDa MMP-2 (UniProt P08253). In words: fluorometric MMP-2 activity assay, competitive inhibition fit; TIMP-2 0-2.5 nM, substrate 0.83-6.66 µM.
What is called Ki is the equilibrium dissociation constant of an inhibitor or competing ligand from its target. Read a high Ki as lower affinity. “wild type human TIMP-2 with C-terminal His6 tag (WT TIMP-2-His6) (from UniProt P16035 27-220)” registered a Ki of 1.5 nM.

“TIMP-2 Y90F-His6 (from UniProt P16035 27-220)”: the Ki was found to be 1.4 nM.

The substance “TIMP-2 Y90E-His6 (from UniProt P16035 27-220)” came in with a Ki of 0.3 nM. This Ki lies about 4.7-fold lower than the previous one.
